This note sets out measurements from patent publication US20220008545A1 (Bicycle, published 2022).

The target of experiment [1] is T1, fibroblast activation protein α (FAPα) (UniProt Q12884 26-760, limits assumed).
T1 sequence (looked up): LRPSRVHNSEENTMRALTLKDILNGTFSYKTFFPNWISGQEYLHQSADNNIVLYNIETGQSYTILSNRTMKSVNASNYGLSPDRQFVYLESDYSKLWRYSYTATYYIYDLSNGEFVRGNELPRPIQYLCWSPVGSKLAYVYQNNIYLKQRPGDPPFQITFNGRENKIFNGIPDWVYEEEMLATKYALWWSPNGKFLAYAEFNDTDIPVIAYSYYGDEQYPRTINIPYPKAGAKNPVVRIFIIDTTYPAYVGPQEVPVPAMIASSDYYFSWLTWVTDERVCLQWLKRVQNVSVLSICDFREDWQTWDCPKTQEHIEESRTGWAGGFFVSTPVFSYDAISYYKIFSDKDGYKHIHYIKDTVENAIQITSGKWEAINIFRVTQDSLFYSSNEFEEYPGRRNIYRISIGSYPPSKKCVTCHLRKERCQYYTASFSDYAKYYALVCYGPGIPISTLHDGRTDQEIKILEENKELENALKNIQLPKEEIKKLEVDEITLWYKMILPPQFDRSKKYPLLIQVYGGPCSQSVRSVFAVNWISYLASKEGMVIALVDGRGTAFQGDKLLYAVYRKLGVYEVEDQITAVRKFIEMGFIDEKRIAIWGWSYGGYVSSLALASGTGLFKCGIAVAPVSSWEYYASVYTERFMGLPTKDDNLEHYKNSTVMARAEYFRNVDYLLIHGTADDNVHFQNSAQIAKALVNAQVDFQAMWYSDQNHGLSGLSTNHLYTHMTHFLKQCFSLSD
The experiment in a line: cell-based or functional assay.

Experiment [2] has as its target T1, fibroblast activation protein α (FAPα). The experiment in a line: fluorescence polarization FAPα binding assay. The procedure:
FAPα binding was measured using the fluorescence polarization assay methodology described in Yanagisawa et al (1997) J Biol Chem 272(13), 8539-8545. FAPα enzyme inhibition was measured using the assay methodology described in Poplawski et al (2013) J Med Chem 56(9), 3467-3477.
A general note: Fluorescence polarisation rises when a labelled molecule tumbles more slowly, as on binding a larger partner.

Starred links: 1 amine or outer side, 2 acyl side, 3 side chain; linkers in the order of their positions; H or OH if unused. Positions of bridges follow the written chain, without caps; N, C: chain ends. No end group written: not given here. TBMB = c1c(C[*:1])cc(C[*:3])cc1C[*:2]

As a reminder, the Ki is a measure of affinity in units of concentration, obtained from inhibition or displacement.

B1: A-(SEQ ID NO: 3)-A (peptide)
peptide: ACPPTEYDCLIFFSECA
modifications: linker 2-9-16 via TBMB
notes: all L-amino acids; also called CiPPTEYDCiiLIFFSECiii with N- and C-terminal Ala
Regarding B1, the “FAPα Enzyme Inhibition IC50” value in experiment [1] worked out at 5.76 µM. In addition, in experiment [2], the Ki came to 0.578 µM.

B2: A-(SEQ ID NO: 1)-A (peptide)
peptide: ACHSDYLICPYGDFFCA
modifications: linker 2-9-16 via TBMB
notes: all L-amino acids; also called CiHSDYLICiiPYGDFFCiii with N- and C-terminal Ala
Turning to B2, the “FAPα Enzyme Inhibition IC50” value in experiment [1] amounted to 1.33 µM. This molecule also gave a Ki in experiment [2] of 0.113 µM.

Take ACDDCLISMRDACA (linker 2-5-13 via TBMB, all L-amino acids) [A-(SEQ ID NO: 4)-A]: the “FAPα Enzyme Inhibition IC50” value in experiment [1] stood at 16.7 µM. In addition, affinity in experiment [2] was put at a Ki of 1.72 µM.

In the case of ACTDCDTDSLIYCA (linker 2-5-13 via TBMB, all L-amino acids) [A-(SEQ ID NO: 2)-A], the “FAPα Enzyme Inhibition IC50” value in experiment [1] was more than 50 µM. The same molecule gave a Ki in experiment [2] of 4.52 µM.
